“And” between values parts separate entries of the source, which are not always exact repeats. Identical values can stand only once. Like-named read-outs stand apart in the source and are kept apart here.
B1: ABWT050904: CD117-binding aptamer, SEQ ID NO: 2 (nucleic acid)
chain: ATCCAGAGTGACGCAGCACGAGCCTTGTGTCGTTCGGAGTGCTGGTCCACGACTACTATTGGACACGGTGGCTTAGT
modifications: listed as DNA, chemistry not fully specified
B2: Oligo-Protein G conjugates: docking oligo conjugated via sulfo-SMCC linker to 6xHis-tagged recombinant Protein G (conjugate)
chain: TYKLILNGKTLKGETTTEAVDAATAEKVFKQYANDNGVDGEWTYDDATKTFTVTEKPEVIDASELTPAVTTYKLVINGKTLKGETTTEAVDAATAEKVFKQYANDNGVDGEWTYDDATKTFTVTEKPEVIDASELTPAVTTYKLVINGKTLKGETTTKAVDAETAEKAFKQYANDNGVDGVWTYDDATKTFTVTE
B3: 3x3v2-Conjugate: Oligo-Protein G conjugates immobilized on 3x3v2 nets (conjugate)
chain: B2 chain
B4: ABWT050902 (ssDNA)
DNA: ATCCAGAGTGACGCAGCACCGCCCATGTCGAATAGGTGCCACGTAGGGACTTGGACACGGTGGCTTAGT
B5: ABWT050902: CD117-binding aptamer, SEQ ID NO: 1; FAM-labeled or daunorubicin-loaded in tests (nucleic acid)
chain: B4 DNA
modifications: FAM label or daunorubicin loading in tests, chemistry not fully specified
B6: #1: CD117-binding aptamer, SEQ ID NO: 3 (nucleic acid)
chain: GAGGCATACCAGCTTATTCAAGGGGCCGGGGCAAGGGGGGGGTACCGTGGTAGGACATAGTAAGTGCAATCTGCGAA
modifications: listed as DNA, chemistry not fully specified
B7: ZW25: CD123-binding aptamer, SEQ ID NO: 4 (nucleic acid)
chain: TGCGTGTGTAGTGTGTCTGGGCTACATCGATGAGCTGCCTAGGGTCCCTCTTAGGGATTTGGGCGGG
modifications: listed as DNA, chemistry not fully specified
B8: CY30: CD123-binding aptamer, SEQ ID NO: 5 (nucleic acid)
chain: TGCGTGTGTACTGTGTCTGGTCCCGTAGCTACTAGCGAACTCCCTGCCTCTTAGGGATTTGGGCGG
modifications: listed as DNA, chemistry not fully specified

Legend:
MM1S cells = experiment: MTT cell killing assay; assay type: cell-based, Human; details: Example 3: 24 hours treatment, MTT after 48 hours; daunorubicin 40 μM; daunorubicin-loaded aptamers 4 μM and 2 μM
Description: (§1) Daunorubicin-loaded aptamers were then diluted across various concentrations: 4 μM, 2 μM, 0.2 μM, and 0.02 μM. Untreated cells were used as a negative killing control. 10% DMSO was used as a positive killing control. 40 μM daunorubicin was also used as a positive killing control but one that matched the current National Comprehensive Cancer Network (NCCN) guidelines for AML daunorubicin chemotherapy dosing. Cells were incubated with their respective treatments for 24 hours before they were washed with cell medium. After 48 hours, the viability of all cells were assessed using MTT assays. All conditions were performed in triplicate for standard error analysis. MM1S cells were used as negative control in the assays having aptamers at 4 μM and 2 μM, respectively.
Daunorubicin-loaded aptamers were prepared as described in Example 3. The killing activity of daunorubicin-loaded aptamers alone and daunorubicin-loaded aptamers on various networks of polynucleotides, i.e., 3x3v1 nets and TRD1 tiles on KASUMI-1 cells (an AML cell line) were assessed using the procedures as described in Example 3. […]

KASUMI-1 cells = experiment: MTT cell killing assay; assay type: cell-based, Human; details: for ΔFold over Free (3x3v1): IC50 on 3x3v1 net versus free aptamer; for ΔFold over Free (TRD1): IC50 on TRD1 versus free aptamer
Description: as §1
Daunorubicin-loaded aptamers were prepared as described in Example 3. The killing activity of daunorubicin-loaded aptamers alone and daunorubicin-loaded aptamers on various networks of polynucleotides, i.e., 3x3v1 nets and TRD1 tiles on KASUMI-1 cells (an AML cell line) were assessed using the procedures as described in Example 3. Additional negative killing controls were added to control for any inherent nonspecific killing effects by the networks of polynucleotides or aptamers: “3x3v1 net (Empty)” is 3x3v1 net without aptamers (therefore, no daunorubicin), “TRD1 (Empty)” is TRD1 without aptamers (therefore, no daunorubicin), “Scramble Aptamer 1”, “Scramble Aptamer 2”, and “Scramble Aptamer 3” were three oligos with lengths and A:T:C:G ratios similar to the tested aptamers but whose nucleotide sequences were randomized but also loaded with daunorubicin. 0.4 μM Daunorubicin were intercalated into aptamers across all conditions.
KASUMI-1 cells were cultured and incubated with all five aptamers (each loaded with daunorubicin) across six concentrations: 10 nM, 1 nM, […] and 100 fM. 10% DMSO, 40 μM daunorubicin, 4 μM daunorubicin, and 0.4 μM daunorubicin were used as positive killing controls. 3x3v1 net (Empty), TRD1 (Empty), Scramble Aptamer 1, Scramble Aptamer 2, and Scramble Aptamer 3 were negative killing controls. Incubation and washing procedures were as described in Experiment 3. After 48 hours, the samples were measured for viability via MTT assay. Data points were plotted and unpaired student's t—tests were performed to determine significance. For IC50 calculations, the concentrations were transformed to the logarithmic equivalent followed by normalization of the relative cell viability on a scale of 0-100. The normalized viability was subjected to nonlinear regression against the logarithmically converted inhibitor concentrations in the three parameters variable slope mode to determine the IC50. […]
ABWT050902 aptamers with D1 dock sites were loaded with daunorubicin as described previously. Aptamers were then immobilized on PTR45 and PTR86 (please refer to FIG. 17B and FIG. 17C). PTR45 was loaded with 20 ABWT050902 D1 aptamers, whereas PTR86 were loaded with 40. KASUMI-1 cells were grown, incubated with analytes, and measured via MTT cell killing assays as described previously.

mouse IgG = experiment: SPR binding assay of Protein G activity, Biacore CM5 chip; details: mouse IgG immobilized on CM5 chip, equivalent conjugate amount
Description: We used a sulfo-SMCC linker to conjugate an oligo (complementary to 3x3v1 docking sites) bearing a 5′ amine to the N terminal cysteine sulfhydryl R group on 6xHis-tagged recombinant Protein G (the oligo also bore a 3′ biotin for later purification). This was performed at room temperature in 1x phosphate buffered saline (PBS), pH 7.4. Oligo functionalization with sulfo-SMCC was performed first (as is typical), followed by two Zeba column (7 kDa molecular weight cutoff) cleanups to remove the excess sulfo-SMCC. Functionalized oligos were then placed in molar excess to Cys-Protein G. Purification proceeded via usage of monomeric avidin resin (to remove any unconjugated Cys-Protein G) followed by Ni^2+-NTA resin (to remove any unconjugated oligos). Oligo-Protein G conjugates were then docked to 3x3v1 (27 docking sites) and 3x3v2 (9 docking sites) nets and assayed for activity on SPR binding assays.

CD117 (c-KIT) = CD117 (c-KIT) (UniProt P10721 P10721:26-524); experiment: SPR; aptamer alone, CD117 immobilized on CM5 chip; details: tags: immobilized on Biacore CM5 chip; label: 5' FAM (flow cytometry)
Description: Next, surface plasmon resonance (SPR) assays were performed to assess the ability of networks of polynucleotides to improve the binding affinity of an aptamer. Aptamer ABWT050902 (a CD 117 binder) was folded as previously described. Aptamers alone, and aptamers on a TRD1 (as illustrated in FIG. 2) were prepared at varying concentrations and flowed over a CM5 sensor chip on a Biacore SPR immobilized with CD117. The inter-binder distances of the 96 uniquely addressable docking loci for CD 117 binders was 5 nm. Concentrations were normalized to total aptamer amount.

CD117 = CD117 (Homo sapiens, UniProt P10721); experiment: SPR binding assay, Biacore CM5 chip; details: CD117 immobilized on CM5 chip, concentrations normalized to total aptamer amount
[1] = Kinetic fluorescent assay of daunorubicin release over time; details: free daunorubicin in supernatant buffer
From the text: Despite both “ABWT050902 Alone, With Daunorubicin” and “ABWT050902 on TRD1” conditions beginning the assay at the same time, the former began the assay with higher fluorescence of 400.0+ RFUs compared to the latter. This is because more free daunorubicin was in the supernatant buffer of “ABWT050902 Alone, with Daunorubicin” compared to “ABWT050902 on TRD1”.

[2] = KASUMI-1, MTT after 48 hours, daunorubicin or daunorubicin-loaded aptamer alone, read-out: IC50 (pM) Free
[3] = KASUMI-1, daunorubicin-loaded aptamer immobilized on 3x3v1 net, read-out: IC50 (pM) 3x3v1
[4] = KASUMI-1, daunorubicin-loaded aptamer immobilized on 3x3v1 net, read-out: IC90 (pM) 3x3v1
[5] = KASUMI-1, daunorubicin-loaded aptamer immobilized on TRD1, read-out: IC50 (pM) TRD1
[6] = KASUMI-1, daunorubicin-loaded aptamer immobilized on TRD1, read-out: IC90 (pM) TRD1

CD117, sequence (P10721 26-976): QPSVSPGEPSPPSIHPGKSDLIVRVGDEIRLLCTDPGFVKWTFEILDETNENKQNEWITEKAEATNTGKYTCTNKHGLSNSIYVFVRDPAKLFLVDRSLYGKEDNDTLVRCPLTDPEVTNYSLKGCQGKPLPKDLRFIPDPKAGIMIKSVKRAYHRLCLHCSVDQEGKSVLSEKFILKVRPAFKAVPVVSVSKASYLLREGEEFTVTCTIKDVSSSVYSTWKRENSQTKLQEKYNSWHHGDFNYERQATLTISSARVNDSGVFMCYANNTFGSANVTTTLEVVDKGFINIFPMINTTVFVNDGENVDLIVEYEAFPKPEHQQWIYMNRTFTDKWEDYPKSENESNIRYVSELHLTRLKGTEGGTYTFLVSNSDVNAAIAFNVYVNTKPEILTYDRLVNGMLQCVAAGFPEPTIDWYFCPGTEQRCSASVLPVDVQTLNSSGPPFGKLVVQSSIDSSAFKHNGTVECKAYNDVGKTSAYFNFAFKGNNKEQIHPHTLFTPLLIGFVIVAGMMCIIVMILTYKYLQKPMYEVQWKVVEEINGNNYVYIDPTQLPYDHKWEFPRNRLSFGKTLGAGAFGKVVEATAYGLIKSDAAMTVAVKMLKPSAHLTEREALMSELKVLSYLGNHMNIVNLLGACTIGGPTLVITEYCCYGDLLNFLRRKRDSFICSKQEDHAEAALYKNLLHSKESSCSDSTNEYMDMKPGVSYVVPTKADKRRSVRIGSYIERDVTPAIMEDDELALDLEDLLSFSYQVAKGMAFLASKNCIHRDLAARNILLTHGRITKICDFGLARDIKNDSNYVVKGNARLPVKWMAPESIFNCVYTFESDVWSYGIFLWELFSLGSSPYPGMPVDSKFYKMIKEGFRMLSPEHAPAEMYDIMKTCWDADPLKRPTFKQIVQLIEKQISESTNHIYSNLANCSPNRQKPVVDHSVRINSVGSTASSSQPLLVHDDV
CD117 (c-KIT), sequence (P10721 26-524, one chain of several): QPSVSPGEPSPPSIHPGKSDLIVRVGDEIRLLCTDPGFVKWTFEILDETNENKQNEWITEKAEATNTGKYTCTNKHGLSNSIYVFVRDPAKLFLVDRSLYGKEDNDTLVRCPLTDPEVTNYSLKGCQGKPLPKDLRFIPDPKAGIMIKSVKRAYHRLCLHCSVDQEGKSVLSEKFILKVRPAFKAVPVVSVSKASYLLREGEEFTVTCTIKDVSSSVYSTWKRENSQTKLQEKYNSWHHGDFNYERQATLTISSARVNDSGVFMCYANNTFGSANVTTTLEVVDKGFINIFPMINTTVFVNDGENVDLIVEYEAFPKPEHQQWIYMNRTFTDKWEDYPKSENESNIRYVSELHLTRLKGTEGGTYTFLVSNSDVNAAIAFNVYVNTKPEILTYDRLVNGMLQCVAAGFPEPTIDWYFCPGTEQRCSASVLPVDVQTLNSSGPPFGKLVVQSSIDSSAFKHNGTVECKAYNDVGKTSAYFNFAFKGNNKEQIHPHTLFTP

| Molecule | ΔFold over Free (3x3v1) (KASUMI-1 cells) [x] | IC50 (KASUMI-1 cells; [2]) [pM] | IC50 (KASUMI-1 cells; [3]) [pM] | IC90 (KASUMI-1 cells; [4]) [pM] | ΔFold over Free (TRD1) (KASUMI-1 cells) [x] | IC50 (KASUMI-1 cells; [5]) [pM] | IC90 (KASUMI-1 cells; [6]) [pM] | also measured |
| --- | --- | --- | --- | --- | --- | --- | --- | --- |
| COc1cccc2c1C(=O)c1c(O)c3c(c(O)c1C2=O)C[C@@](O)(C(C)=O)C[C@@H]3O[C@H]1C[C@H](N)[C@H](O)[C@H](C)O1 [Daunorubicin, daunorubicin, reference compound] | – | – | – | – | – | – | – | killing of MM1S cells (MM1S cells): approximately 50%; killing of KASUMI-1 cells (KASUMI-1 cells; Example 3: 24 hours treatment, MTT after 48 hours, daunorubicin 40 μM, daunorubicin-loaded aptamers 4-0.02 μM): approximately 20%; IC50 (KASUMI-1 cells; Homo sapiens, Kasumi 1, 48 h, read-out: IC50 (pM) Free): 58400 pM |
| B1 | 4.2 | 976 | 233 | 17600 | – | – | – | – |
| B2 | – | – | – | – | – | – | – | relative response, binding to mouse IgG (mouse IgG): ~145 RUs |
| B3 | – | – | – | – | – | – | – | relative response, binding to mouse IgG (mouse IgG): ~170 RUs |
| B4 | – | – | – | – | – | – | – | Kd (CD117 (c-KIT)): 1220 nM |
| B5 | 2.4 | 529 | 218 | 61800 | – | – | – | Kd (CD117): ~1220 nM and 1220 nM; fluorescence at the beginning of the daunorubicin release assay [1]: ≥ 400.0 RFUs |
| B6 | 3.6 | 531 | 147 | 208000 | 5.6 | 95 | 165000 | IC90 (KASUMI-1 cells; KASUMI-1, daunorubicin-loaded aptamer alone, read-out: IC90 (pM) Free): 108000 pM |
| B7 | 8.0 | 3540 | 445 | 128000 | 34.7 | 102 | 7830 | – |
| B8 | 5.5 | 5070 | 931 | 8700 | 38.1 | 133 | 93600 | – |

Reference: patent US20250388907A1, “MULTISPECIFIC POLYNUCLEOTIDE NANOSTRUCTURES FOR CANCER DETECTION AND THERAPY” (Atom Bioworks, Inc., priority 2021, published 2025)
